Target: Lucy-Flag-rsstr3-TAS2R14-HSV (rat | human) (UniProt P30936)
Chain of UniProt P30936 (P30936 whole entry): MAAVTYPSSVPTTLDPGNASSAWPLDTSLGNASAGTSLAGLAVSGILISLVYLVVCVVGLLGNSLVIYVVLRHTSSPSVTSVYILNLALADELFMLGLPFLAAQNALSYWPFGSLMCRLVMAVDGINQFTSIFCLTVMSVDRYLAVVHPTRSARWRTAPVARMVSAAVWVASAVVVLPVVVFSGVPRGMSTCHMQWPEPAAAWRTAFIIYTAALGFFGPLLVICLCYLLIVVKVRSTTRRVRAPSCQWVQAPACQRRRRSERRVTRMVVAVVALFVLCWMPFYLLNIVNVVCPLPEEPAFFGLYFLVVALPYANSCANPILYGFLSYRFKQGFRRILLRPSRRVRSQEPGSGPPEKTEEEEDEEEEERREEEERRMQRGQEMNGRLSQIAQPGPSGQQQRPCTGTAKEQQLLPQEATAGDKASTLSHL

## HA-β2AR (from UniProt P07550 1-413) (receptor)
  impairment by ISO (10 uM) of the relaxation of HASM cells (endogenous receptors) to the TAS2R14 agonist FFA (100 uM), magnetic twisting cytometry: 50%

Reference: PMC5016158
